The values that follow come from PMC7096706.

This test has as its target Trypanosoma cruzi farnesyl pyrophosphate synthase (Trypanosoma cruzi). Nature of the test: dynamic light scattering; stock solution of tcFPPS thawed from -80°C directly before analysis; Zetasizer Ultra; distribution by volume analysis; monomer to dimer.

As to “Trypanosoma cruzi farnesyl pyrophosphate synthase (enzyme)”, the stoichiometry N amounted to 2.
